# Molecular target: Alexa488-labeled H3-H4 dimer (UniProt P84233)
# Assay: fluorescence polarisation; 5 nM Alexa488-labeled H3-H4 dimer with increasing amounts of CAF-1; 25 mM TRIS pH 7.5, 300 mM NaCl, 5% glycerol, 1 mM EDTA, 0.01% NP-40, 0.01% CHAPS, 1 mM DTT
row,Substance,Kd [nM]
1,tCAF_∆ac (trimeric tCAF-1 with the acidic region of Cac1 deleted) (from UniProt Q12495 233-606; Q04199 1-449; P13712 1-422) (complex),60
2,tCAF_∆3 (tCAF-1 sub-complex lacking the small subunit Cac3) (from UniProt Q12495 233-606; Q04199 1-449),1.3
3,"Cac2 (middle subunit of yeast CAF-1), C-terminal His-tag (from UniProt Q04199 1-449) (natural protein)",> 1000
4,full-length (FL) yeast CAF-1 complex (from UniProt Q12495 1-606; Q04199 1-449; P13712 1-422),0.3
5,tCAF_∆2 (tCAF-1 sub-complex lacking the middle subunit Cac2) (from UniProt Q12495 233-606; P13712 1-422),25

# More lines, in order of falling Kd, values ahead:
row,Kd [nM],Substance
1,77,Cac3 (small subunit of yeast CAF-1) (from UniProt P13712 1-422) (natural protein)
2,8,tCAF_Nac (trimeric tCAF-1 with the acidic region of Cac1 replaced by a neutral Gly-Ser-Leu peptide) (from UniProt Q12495 233-606; Q04199 1-449; P13712 1-422) (complex)
3,0.5,tCAF-1 (tCac1 233-606 with Cac2 and Cac3) (from UniProt Q12495 233-606; Q04199 1-449; P13712 1-422) (complex)

# From PMC5394680
